# From paper PMC3141782 (2011)
# B1: human chorionic gonadotropin (protein)
# chain 1: not shown
# chain 2: SKEPLRPRCRPINATLAVEKEGCPVCITVNTTICAGYCPTMTRVLQGVLPALPQVVCNYRDVRFESIRLPGCPRGVNPVVSYAVALSCQCALCRRSTTDCGGPKDHPLTCDDPRFQDSSSSKAPPPSLPSPSRLPGPSDTPILPQ
# modifications: 125I-labelled hCG
# Biological target: luteinizing hormone receptor (LHR) (Homo sapiens, UniProt P22888)
# Experiment: [125I]-hCG binding to transfected SKOV-3 cells
# luteinizing hormone receptor (LHR), sequence (P22888 27-699): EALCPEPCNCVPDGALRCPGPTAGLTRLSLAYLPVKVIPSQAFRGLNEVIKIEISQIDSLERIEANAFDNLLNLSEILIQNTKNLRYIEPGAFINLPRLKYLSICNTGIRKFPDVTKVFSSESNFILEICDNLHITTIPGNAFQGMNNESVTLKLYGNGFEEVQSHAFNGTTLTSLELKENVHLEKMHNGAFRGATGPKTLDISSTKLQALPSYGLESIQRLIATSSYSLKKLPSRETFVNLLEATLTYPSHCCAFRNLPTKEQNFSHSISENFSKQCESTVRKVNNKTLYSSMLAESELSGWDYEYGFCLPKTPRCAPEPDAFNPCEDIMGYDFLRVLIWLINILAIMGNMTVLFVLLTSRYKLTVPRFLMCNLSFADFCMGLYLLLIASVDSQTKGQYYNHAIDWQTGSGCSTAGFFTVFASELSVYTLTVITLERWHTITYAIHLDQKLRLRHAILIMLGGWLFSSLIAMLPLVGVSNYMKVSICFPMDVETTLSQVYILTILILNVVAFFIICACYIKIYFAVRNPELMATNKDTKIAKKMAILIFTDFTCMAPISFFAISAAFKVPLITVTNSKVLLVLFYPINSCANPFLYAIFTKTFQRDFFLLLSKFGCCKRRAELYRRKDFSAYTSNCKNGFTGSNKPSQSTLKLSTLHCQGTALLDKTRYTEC
binder,measurement,value
B1,Kd,0.3 nM
